The values that follow come from article PMC6082341 (2017).

Ends that are not written are not given here.

B2: TNKS2 ARC5 (domain or fragment)
chain: GAMGSDLLRGDAALLDAAKKGCLARVKKLSSPDNVNCRDTQGRHSTPLHLAAGYNNLEVAEYLLQHGADVNAQDKGGLIPLHNAASYGHVDVAALLIKYNACVNATDKWAFTPLHEAAQKGRTQLCALLLAHGADPTLKNQEGQTPLDLVSADDVSALLTAAMPP

Experiment [1] has as its target B2. The experiment is described as follows: FP.
Experiment [2] concerns the target T1, MERIT40 (two peptides) (fluorescein or 5(6)-carboxyfluorescein fluorophore; the fluorescein is linked via β-Ala). The experiment is described as follows: FP; MERIT40 I peptide (…).
The target of experiment [3] is T1, MERIT40 (two peptides). The experiment is described as follows: FP; MERIT40 II peptide (…).

B1: 3BP2 TBM peptide (WT positive control) (peptide)
chain: LPHLQRSPPDGQSFRS
modifications: also: fluorescein or 5(6)-carboxyfluorescein linked via β-Ala, site not given here
Turning to B1, the affinity in experiment [1], expressed as Kd, was 390 nM.
For B2, the Kd – broadly, the free concentration of one partner at which half of the binding sites on the other are occupied at equilibrium, for simple one-to-one binding – in experiment [2] was 530 nM; in experiment [3], 3000 nM.
